Columns and labels:
[1] = biological target: H3K4me1 peptide (H3 tail residues 1-20) (UniProt P68431)
[2] = biological target: H3K4me2 peptide (H3 tail residues 1-20) (UniProt P68431)
[3] = biological target: H3K4me2T6ph peptide (H3 tail residues 1-20) (UniProt P68431)
[4] = biological target: H3K4me1T6ph peptide (H3 tail residues 1-20) (UniProt P68431)
GST-H3 1-135 T6A = GST-H3 1-135 T6A (UniProt P68431)
GST-H3 1-15 = GST-H3 1-15 (UniProt P68431)
GST-H3 16-30 = GST-H3 16-30 (UniProt P68431)
[5] = biological target: GST-H3 1-135 (full-length histone H3) (UniProt P68431)
GST-H3 29-44 = GST-H3 29-44 (UniProt P68431)
[6] = biological target: histone H3 in untreated nucleosomes purified from HeLa cells (UniProt P68431)
GST H3 1-15 T6A = GST H3 1-15 T6A (UniProt P68431)

Row | Substance | demethylation assay, mass spectrometry [1] | demethylation assay, mass spectrometry [2] | demethylation assay, mass spectrometry [3] | demethylation assay, mass spectrometry [4] | phosphorylation in the presence of [γ-32P]ATP (autoradiography) (GST-H3 1-135 T6A) | phosphorylation in the presence of [γ-32P]ATP (autoradiography) (GST-H3 1-15) | phosphorylation in the presence of [γ-32P]ATP (autoradiography) (GST-H3 16-30) | phosphorylation in the presence of [γ-32P]ATP (autoradiography) [5] | phosphorylation in the presence of [γ-32P]ATP (autoradiography) (GST-H3 29-44) | phosphorylation of nucleosomes at H3T6 (in vitro kinase assay, Western blot with α-H3T6ph) [6] | phosphorylation in the presence of [γ-32P]ATP (autoradiography) (GST H3 1-15 T6A)
1 | bacterially expressed and purified His-LSD1 | demethylation of H3K4me1 by LSD1 | The robust demethylation of H3K4me2 observed in the presence of LSD1 | is completely blocked when the peptides are phosphorylated at T6 | demethylation of H3K4me1 by LSD1 is completely abrogated in the presence of phosphorylated T6 |  |  |  |  |  |  | 
2 | purified recombinant active PKCβI (ProQinase) |  |  |  |  | mutation of threonine 6 to alanine in either H3 1-15 (H3 1-15 T6A) or in full length H3 (H3 1-135 T6A) abolishes phosphorylation | only full-length histone H3 (H3 1-135) and a H3 fragment spanning amino acid residues 1 to 15 (H3 1-15), but not H3 16-30 or H3 29-44, are phosphorylated by PKCβI | but not H3 16-30 or H3 29-44, are phosphorylated by PKCβI | only full-length histone H3 (H3 1-135) and a H3 fragment spanning amino acid residues 1 to 15 (H3 1-15), but not H3 16-30 or H3 29-44, are phosphorylated by PKCβI | but not H3 16-30 or H3 29-44, are phosphorylated by PKCβI | only PKCα, 131 and 132 phosphorylate nucleosomes at H3T6 | mutation of threonine 6 to alanine in either H3 1-15 (H3 1-15 T6A) or in full length H3 (H3 1-135 T6A) abolishes phosphorylation
3 | purified recombinant active PKCδ (ProQinase) |  |  |  |  |  |  |  |  |  | only PKCα, 131 and 132 phosphorylate nucleosomes at H3T6 (PKCδ tested, no phosphorylation) | 
